Experiment: soluble on expression in E. coli; label from the status in PepcDB or PDB records

Row | Sequence | soluble on expression in E. coli
1 | MSLAVDTSGEFMRHLYIEEGRTVCASATSRNRRPTSESPHSDDVVVVEGMLRGRPETRVHAMFDGFQGRHSAMWLAQNVMNYLNDLRDVNEEEITRQFERMDGDLRAANLPGGSSALIIFVRYEKKPTEARVVGRQIVPEGAKEFTSVAEALGGPLMPVVAMNFRRDPRAAKGIYTIHVASLGNSRCVLKSGRTAIHLSTPHTASSHKERHRVQAAGGVFTTVNGELLLGGVVPMTRAFGSFDFKKGGQGKLQQDLVSAVPDVTTFFAYPGDDIVAGTAGAFAHFRSHAAIAAAIALYPVSPETVLDAAKAMVVNAKRRKVTKNISTFVRHLPESRTRSQKMLEGTSGENGEEDFSIDRTNELTQALQAGFFSFLLYYEGHHHHHH | soluble
2 | MTMFGKIFSKKTPKTDIKSNGEALNASEIEQFIKDTLSHYISDNFPQGVLAVCQQLSITQKKKITIKLLMPFVCQGELDLLAQTLSENLARTVNFEIDLAIKPVRQFSLGNDKNKAGQEGMLQGKVANIIAIASGKGGVGKSTTTVNLAYALMCEGARVGILDADIYGPSIPSMLGLKNEKPSSSDGKLMTPVDAKGLSAMSIGFLVDEADATVWRGPMASSAFNQLLNETDWPELDYLLIDMPPGTGDIQLTLAQKVPVAAAVIVTTPQDIALIDAVKGIAMFDKVKVPVLGIVENMSYHLCENCGHKSHIFGEAGGEHMAEDHETKLLGQLPLDITIRQDADFGESDIIENSAGEIANHYRKIARNVSAQLFLQCDTASPLTATVAHKALEHHHHHH | soluble
3 | MSLHSYDYDAIVIGSGPGGEGAAMGLVKQGARVAVIERYQNVGGGCTHWGTIPSKALRHAVSRIIEFNQNPLYSDHSRLLRSSFADILNHADNVINQQTRMRQGFYERNHCEILQGNARFVDEHTLALDCPDGSVETLTAEKFVIACGSRPYHPTDVDFTHPRIYDSDSILSMHHEPRHVLIYGAGVIGCEYASIFRGMDVKVDLINTRDRLLAFLDQEMSDSLSYHFWNSGVVIRHNEEYEKIEGCDDGVIMHLKSGKKLKADCLLYANGRTGNTDSLALQNIGLETDSRGQLKVNSMYQTAQPHVYAVGDVIGYPSLASAAYDQGRIAAQALVKGEANAHLIEDIPTGIYTIPEISSVGKTEQQLTAMKVPYEVGRAQFKHLARAQIVGMNVGTLKILFHRETKEILGIHCFGERAAEIIHIGQAIMEQKGGGNTIEYFVNTTFNYPTMAEAYRVAALNGLNRLFEGHHHHHH | soluble
4 | MRTQTFPPSSSSSRTTHPKKNRHSSNSSSMALVTPAKSSTGAAPKQSSQSGWDYWTRVYSDDAQTTGTPRDVRISDMLSSESLIRAKLLFLNVPSLPSAHKNIILNLVKRELNHDISIQDVVVVPPAKWFLNFYRPEDALKVMKHLNGYSYRGHILAVRFCYPDGTYGDESALTELVQCTNSAKGRILEKKDIVQDTFAVECWTKTEFDSLKVFEKELTNLLKAHAYLPYHTVLQSMRNLFTCKVQSELSSMFISDALAQWPTGLIRIFNRNVKVVSNTMCLSSSSYYTQRIHDSALEGGCSVHRNSWEPTVPDDIRSEVQLIQYTNSFLGHFGPQNIDVDIPIRILAQSLRGTWPKTGPKLAALLTEISSGFVLINRVLYLSSNLHHHEKIIDNLACFQDDCTDVYFLPLSCTTEDQKGKTVDYEDI | not soluble
5 | MTADANKSESLLCMDKAREAIKSGDTDKARRMLLKAKKLDPGQNIEFLTKKIDDMTNNTSSSSQTSSSRASEERSYAHDDHYDDPNLRNRKARSPVKKNGKTEPEPKQRSASRTPKLGVDYTSEQKELVERIRHCKDYYEILKIDKKASDDDIRKEYRKLALKLHPDKCRAPHATEAFKALGNAYAVLSDTDK | not soluble
6 | MSLDTVVKVGFAAPLTGPNANYGKDLENGVKMALDDAKAQGVKINGQPVTFQLVAEDDQADPRIGVQVAQKLIDEGVSVVVGHFNSGTTIPASNLYEKAGLPDIDPAATNPTISSRGFKNMFMVISSDAQNAGTAGAYAVETTKAKRIAVIDDRTAFGQGEADEFVKAVKAHGGDIIDREYTTNQATDFKTQLTNLKAKNPDLIFVGALNPQAAGIMKQMNQLGIKAQYVGGGGVKDIDFIKLAGDVSEGAMAWEYGRPLDSTPVGAKFAERFKQKFGEDVLSYAPFGYDAAWAAIKAMQAANSTKPDDYRSKLQSISFEGITGHIEFNANGSLKNGSSTVYQVKNGQWVTVKTVSGEGHHHHHH | soluble
7 | MDVRQSIHSAHAKTLDTQGLRNEFLVEKVFVADEYTMVYSHIDRIIVGGIMPITKTVSVGGEVGKQLGVSYFLERRELGVINIGGAGTITVDGQCYEIGHRDALYVGKGAKEVVFASIDTGTPAKFYYNCAPAHTTYPTKKVTPDEVSPVTLGDNLTSNRRTINKYFVPDVLETCQLSMGLTELAPGNLWNTMPCHTHERRMEVYFYFNMDDDACVFHMMGQPQETRHIVMHNEQAVISPSWSIHSGVGTKAYTFIWGMVGENQVFDDMDHVAVKDLR | not soluble
8 | MAHHHHHHMPAAVPVRTPPYLVDVAANLTDCVFRGVDWKSNRLHDDDFDYVLARAQERNVQQIIITGTSLAQSVKAIALCRRYPDRRLLCTVGVHPAHCGEFLRPLDRDEVQRVAESASSVVMPHHEKSAAAMTAEREEAWAQERLDYLVDLATRNRDVVVAMGEIGIDYAEVACCPREVQEKYFARQLTAFAPLQLPFLFHSRACGMMFVSHLQDTWTRIASDAAATEAVADNAGASSPSPHAQLRGVVHSFNGTLEEQEALLSMGLYLSLNSSAFREASLAAQVALIPLGRLMFETDAPWCDVRSKDYGAQFVRTVFKTIKRKKPFEMGACLERRNEPCHLVQVMEEYLGCAKASATSPEDPLSRMDEATLVAAVYENCKRLFQL | not soluble
9 | MAHHHHHHMRQGRVRTESTVQRFAKTPIGEGFDLWDRDYLLGAMRLFLFKAETAPPFQVGPCMDATGEILVQLEELEDAREQFSIAAEKYLITQQQQLAKIMEIKALECERGPQAALEELTAFLKKETASTNATAVPAPITRAYAYQAELLLKTATPETPELFTEAVETAKLACNHAWDRVHMGYVVLGDALKASGCPDEARKAYSEAFETNRNCITALERHIEVLKEYIAESNDDMRIEALRKELLPLLESAISLHPRPTLIREKAFLLSETLGDAAALEFLDPLICNPPPEEADAAGNVGGRTVATLLKAKAAILADGGKMQEALEVAEAALKESPSDEEAKAIVAELRESL | soluble
10 | GEITSAYFVCREATLQKLAAMQSIDSEQKLSALFEGSSQIISLFDRDSRFVWYNKAAYDKSIFLFGKFLCVGERFDSYLKEQYREGFNANFERVLKGEIVSYTREYTYQDKPFFLEIMLQPVYQKDELVGVSLIGNN | not soluble
11 | MAHHHHHHMPLYRLSVSAETEGVVCIRPMRPRNWGLKVTCDACREFSPNFVYVDESEECDSGGGGTRNAAFKCASCKTLITAHIDPESYGTYRPEEDNGKGDGNSILIIEVRGATPTELEIDDKWVVEAEGATFEAADLSTDWMEYDEKSGNAVSVSQFTVEFSRLKK | soluble
12 | MGSDKIHHHHHHMLMELTTTSHALKEWAVAVNALESGKTIMLLRKGGIHERNGNFQVAHKQILLYPTYEHQQAFMLKPEYANRVYPVTSGWHPETVRIGSWAEITDILPISDEFLVNALLPFHIWNEHFISDRLKWKPRQPLYILLLRTYKLTQDQEIPYHPKYGGCKSWIDLDQSINLQETTPALSDFAYTQLVQTIRGIVGDKMARKIDMLNYNSTFS | not soluble
13 | MSQRKYFGTDGVRGEVGGPVINAAFALRLGYAAGRVLAREHREHASGRGRNRPQVVIGKDTRISGYMLESALEAGLSAAGIDVLLAGPVPTPAVAYLTRTLRLAAGIVISASHNPYQDNGIKFFSAHGMKLPDDIEAAIEQALDEPLGCVGSEELGRARRMADAQGRYIEFCKSTFPHDLDLNGLKLVVDAAHGAAYNVAPHVFRELGAEVHAIGVSPDGFNINKGVGALHPESLAEEVRARGADLGIALDGDADRLQMVDGTGRIYNGDELLYAIVRERMQRGPVAGVVGTLMTNYGLERQLQQIGVGFERANVGDRYVLEQMQARGWLYGGESSGHLLCLDCHTTGDGTIAALQVLTALRRADATLAEWVADLRMYPQKMINVPLAPGLDWKTHDGLARARGAVEAELAGRGRVLIRASGTEPKLRLMVEAEDEALAQASAQKLADSLGA | not soluble
14 | MNSSPAGTPSPQPSRANGNINLGPSANPNAQPTDFDFLKVIGKGNYGKVLLAKRKSDGAFYAVKVLQKKSILKKKEQSHIMAERSVLLKNVRHPFLVGLRYSFQTPEKLYFVLDYVNGGELFFHLQRERRFLEPRARFYAAEVASAIGYLHSLNIIYRDLKPENILLDCQGHVVLTDFGLCKEGVEPEDTTSTFCGTPEYLAPEVLRKEPYDRAVDWWCLGAVLYEMLHGLPPFYSQDVSQMYENILHQPLQIPGGRTVAACDLLQSLLHKDQRQRLGSKADFLEIKNHVFFSPINWDDLYHKRLTPPFNPNVTGPADLKHFDPEFTQEAVSKSIGCTPDTVASSSGASSAFLGFSYAPEDDDILDC | soluble
15 | MTWQPFYVGTGQAPAGAEEQVVLPPAPPWREFPRRSQHRQFVPPPRLAEAVNAALALRRPLLVTGPAGSGKSTVIEQVAAELALGDVLRWHITSRSSLAEALYRYDALGRIHAQRLEGPGGSDDIAPFLRMGPLGTALLPSARPRALLIDEIDKSDLDLPSDLLDVLERGEFEIPELARYGTDVVPVREHGGERTHLIARGRVQCAEFPFIVMTSNGDRDFPAAFLRRCIRFTMPLPTPETLLRVVEAHMGPEKAAADETGRLITVFLERLTAGESLAVDQLLNAVHLLTGDGAPGDDRRQAIAELILRELSHALEHHHHHH | not soluble
16 | MSLGLSKTIWTNPAEYLRALSPEAPVLFFSPSTLQATARRFIDGFPGMVTYAVKSNPEEVVIENLAAAGIRGYDVASPHEIRMIRRIAPDAALHYNNPVRSRSEIGVGVEMGVKSWSVDSASELAKLIELVPAEGCEIAVRFKLAVSGAAYNFGAKFGATVELAVELLRRVAEAGFIPSMTFHPGTQCTDPAAWETYIRTAAEIARDAGVTIARLNVGGGFPSHRLNGVEPELEAIFHLIDRVTDEAFGADRPLLVCEPGRGICADAFTLAARIKAVRDDAHVFLNDGVYGSLTELPMIGVIDRVAVLTPEGRRRDGETRDRIIFGPTCDSVDRLPGELPLAADVEEGDFLVFQGMGAYSAATNTRFNGFGELSMATVLSLKEGHHHHHH | soluble
17 | MGSDKIHHHHHHMKKVVVGLSGGVDSSTAAAILHNQGYEVIGLTLWLMKGKGQCCSEGMIDAAYICEQLGIPHEVVDMRDVFQTHIVDYLVTGYGAGITPLPCSQCNKTVKFGPMVQYAREQLGCDRIATGHYARISYDEASGRYQLLRAVDRNKDQSYFLYDLSQDLLAASLFPLGEMEKADTRRIATEHGLKTADKPESQDLCLVESNGSMRAFLDKYIAPKKGDIVDTAGKILGQHDGVHHYTIGQRKGLGIAAPEPLYVVELDAVNNKVVVGDRTKATQEECTVSRVNWVSIPEPSTPIRAAVQIRYRSAPEPVTVIPLENSRVRLVFDEPQFSITPGQAAVWYDGDKVLGGGIIEQFSN | not soluble
18 | MAGLPDQRLANEALKRGDTVTAQQNYQQLAELGYSEAQVGLADIQVGTRDPAQIKQAEATYRAAADTSPRAQARLGRLLAAKPGATEAEHHEAESLLKKAFANGEGNTLIPLAMLYLQYPHSFPNVNAQQQISQWQAAGYPEAGLAQVLLYRTQGTYDQHLDDVERICKAALNTTDICYVELATVYQKKQQPEQQAELLKQMEAGVSRGTVTAQRVDSVARVLGDATLGTPDEKTAQALLEKIAPGYPASWVSLAQLLYDFPELGDVEQMMKYLDNGRAADQPRAELLLGKLYYEGKWVPADAKAAEAHFEKAVGREVAADYYLGQIYRRGYLGKVYPQKALDHLLTAARNGQNSADFAIAQLFSQGKGTKPDPLNAYVFSQLAKAQDTPEANDLATQLEAPLTPAQRAEGQRLVQQELAARGTLAQSTLQLHALQEEDGEESLLEHHHHHH | soluble
19 | PPGPCLPPRLQGRPKAKEIQLRWGPPLVDGGSPISCYSVEMSPIEKDEPREVYQGSEVECTVSSLLPGKTYSFRLRAANKMGFGPFSEKCDITTAPG | soluble
